According to patent US20220242937A1 (CHANGCHUN GENESCIENCE PHARMACEUTICAL, published 2022):
Numbering of substitutions follows the chain as printed.

B1: 066-4.26.14H5L2 (antibody, V domains shown)
VH: EVQLVESGGGLVQPGGSLRLSCVASGFTFRSYAMSWVRQAPGKGLEWVASISTTSNTYYPDSVKGRFTTSRDNSKNTVYLQMSSLRAEDTAVYYCGRGVITNQAWFAYWGQGTLVTVSS
VL: DIVLTQSPATLSVSPGERATLSCRASQSISNNLHWYQQKPGQAPRLLIKYASQSISGIPARFSGSGSGTDFTLTISSLQSEDFAVYFCQQSNSWPLTFGGGTKVEIK
B2: 066-4.26.14H4L2 (antibody, V domains shown)
VH: B1 VH with V23A, S74A, T77S, A87D, V92M, T113I
VL: B1 VL
B3: 066-4.26.14H5L1 (antibody, V domains shown)
VH: B1 VH
VL: B1 VL with A19V, P40S, A60S, K103Q
B4: 066-4.26.14H2L2 (antibody, V domains shown)
VH: B1 VH with Q13K, V23A, A40T, G42E, G44R, S74A, T77S, L114T
VL: B1 VL
B5: 066-4.26.14 (antibody, V domains shown)
VH: EVKLVESGGGLVKPGGSLKLSCAASGFTFRSYAMSWVRQTPEKRLEWVASISTTSNTYYPDSVKGRFTTSRDNARNIVYLQMSSLRSDDTAMYYCGRGVITNQAWFAYWGQGTLVTVSA
VL: DIVLTQSPATLSVTPGDSVSLSCRASQSISNNLHWYQQKSHESPRLLIKYASQSISGIPSRFSGSGSGTDFTLSVNNVGTEDFGMYFCQQSNSWPLTFGAGTKLELK
B6: mouse-human chimeric antibody 066-4.26.14-chAb (antibody, human IgG1, kappa, V domains shown)
VH: B5 VH
VL: DIVLTQSPATLSVTPGDSVSLSCRASQSISNNLHWYQQKSHESPRLLIKYASQSISGIPSRFSGSGSGTDFTLSVNNVGTEDFGMYFCQQSNSWPLTFGAGTKLELKR
B7: 066-4.26.14H2L3 (antibody, V domains shown)
VH: B1 VH with Q13K, V23A, A40T, G42E, G44R, S74A, T77S, L114T
VL: DIVLTQSPDFQSVTPKEKVTISCRASQSISNNLHWYQQKPDQSPKLLIKYASQSISGIPSRFSGSGSGTDFTLTINSLEAEDAAAYFCQQSNSWPLTFGPGTKVEIK
B8: 066-4.26.14H5L3 (antibody, V domains shown)
VH: B1 VH
VL: B7 VL

molecular target: human Aβ antigen (human); assay: cell-based or functional assay
Sequence (peptide, as listed by the source): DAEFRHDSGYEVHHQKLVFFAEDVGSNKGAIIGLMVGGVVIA

Going from B1 to B2, the “relative fluorescence intensity (ThT, Aβ polymerization; hIgG = 1.00)” value (“relative fluorescence intensity” below) rises from 0.67 to 0.7.

First: B3
Second: B4
The “relative fluorescence intensity” value of the first is higher: 0.68 for the first, 0.62 for the second.

Going from B5 to B6, the “relative fluorescence intensity” value rises from 0.7 to 0.71.

Compared with B7, B8 is higher in “relative fluorescence intensity” value: 0.67 for the first, 0.78 for the second.

Going from B1 to B2, the “relative value of LDH release (SHSY5Y cells with Aβ; hIgG = 1.00)” value (“relative value of LDH release” below) rises from 1.26 to 1.3.

First: B3
Second: B4
The “relative value of LDH release” value of the first is lower: 1.37 for the first, 1.41 for the second.

First: B5
Second: B6
The “relative value of LDH release” value of the first is lower: 1.2 for the first, 1.32 for the second.

First: B7
Second: B8
The “relative value of LDH release” value of the first is higher: 1.42 for the first, 1.41 for the second.
